Assay results published in IntAct's records for PubMed 29039417.

B1: BBSome complex member BBS4 (Homo sapiens), Q96RK4 (parent)
chain: MAEERVATRTQFPVSTESQKPRQKKAPEFPILEKQNWLIHLHYIRKDYEACKAVIKEQLQETQGLCEYAIYVQALIFRLEGNIQESLELFQTCAVLSPQSADNLKQVARSLFLLGKHKAAIEVYNEAAKLNQKDWEISHNLGVCYIYLKQFNKAQDQLHNALNLNRHDLTYIMLGKIHLLEGDLDKAIEVYKKAVEFSPENTELLTTLGLLYLQLGIYQKAFEHLGNALTYDPTNYKAILAAGSMMQTHGDFDVALTKYRVVACAVPESPPLWNNIGMCFFGKKKYVAAISCLKRANYLAPFDWKILYNLGLVHLTMQQYASAFHFLSAAINFQPKMGELYMLLAVALTNLEDIENAKRAYAEAVHLDKCNPLVNLNYAVLLYNQGEKKNALAQYQEMEKKVSLLKDNSSLEFDSEMVEMAQKLGAALQVGEALVWTKPVKDPKSKHQTTSTSKPASFQQPLGSNQALGQAMSSAAAYRTLPSGAGGTSQFTKPPSLPLEPEPAVESSPTETSEQIREK
partner: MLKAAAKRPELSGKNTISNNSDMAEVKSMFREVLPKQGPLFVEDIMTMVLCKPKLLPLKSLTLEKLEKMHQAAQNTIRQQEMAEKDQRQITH

Variants of: B1
Settings: with bbip1_human BBIP1, A8MTZ0

Variant	effect of a mutation on the interaction
F302K	with no effect
F302E	with no effect
N377E	with no effect
N377R	disrupting interaction strength
N377S	disrupting interaction strength
N377D	disrupting interaction strength
L376A	with no effect
T480A	with no effect
Y361C	disrupting interaction strength
A347K	with no effect
L405A	with no effect
R295E	with no effect
K493A	with no effect
S508E	with no effect
S508A	with no effect
K519E	with no effect
P503A	with no effect
L424S	disrupting interaction strength
L424E	with no effect
N384Y	disrupting interaction strength
E339A	with no effect
E339K	with no effect

Variant	effect of a mutation on the interaction
E355K	with no effect
F326A	with no effect
F326K	with no effect
T492E	with no effect
N274K	with no effect
N274A	with no effect
L404K	with no effect
V374E	with no effect
S451E	with no effect
G463K	with no effect
F333E	with no effect
S513E	with no effect
S513K	with no effect
S464A	with no effect
S489A	with no effect
Q394R	disrupting interaction strength
C292R	disrupting interaction strength
Q459E	with no effect
F324A	with no effect
F324E	with no effect
P301S	disrupting interaction strength
W273E	with no effect

Variant	effect of a mutation on the interaction
W273A	with no effect
D442E	with no effect
P461K	with no effect
P495K	with no effect
A364K	with no effect
D407K	with no effect
L373S	disrupting interaction strength
L373A	with no effect
S453A	with no effect
N356A	with no effect
Y308K	with no effect
W304A	with no effect
P335A	with no effect
E268A	with no effect
N275A	with no effect
L312A	with no effect
L312E	with no effect
L312T	disrupting interaction strength
S445E	with no effect
V287K	with no effect
W436E	with no effect
N371A	with no effect

Variant	effect of a mutation on the interaction
A421K	with no effect
M398K	with no effect
Q396E	with no effect
N465K	with no effect
K305E	with no effect
L344E	with no effect
Y378A	with no effect
S415A	with no effect
M472E	with no effect
M317A	with no effect
S473A	with no effect
A330E	with no effect
E397K	with no effect
Q515E	with no effect
S507A	with no effect
D353E	with no effect
L340K	with no effect
L340E	with no effect
V313A	with no effect
V313K	with no effect
F280A	with no effect
G386A	with no effect
